Molecular target: T1, 6xHis-WRKY40 (Arabidopsis thaliana, UniProt Q9SAH7 1-302)
T1 sequence: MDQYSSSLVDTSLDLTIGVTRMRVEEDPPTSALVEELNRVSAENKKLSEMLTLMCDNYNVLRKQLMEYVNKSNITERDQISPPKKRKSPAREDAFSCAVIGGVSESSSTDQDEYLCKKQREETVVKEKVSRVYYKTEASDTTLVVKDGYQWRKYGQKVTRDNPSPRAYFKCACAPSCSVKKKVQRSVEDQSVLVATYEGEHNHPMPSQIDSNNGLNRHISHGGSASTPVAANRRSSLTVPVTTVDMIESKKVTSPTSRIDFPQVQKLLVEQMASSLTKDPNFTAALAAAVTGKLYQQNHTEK
Test: EMSA; 150 ng weak band, 300 ng much stronger band; about 5 ng probe; unlabeled probe competitor significantly reduced binding
Conditions: protein: recombinant; tags: N-terminal 6xHis (pET28b, NdeI/XhoI); label: 32P 5' end (T4 PNK); blunt (implied by two complementary oligonucleotides)

B1: Ipt promoter probe (-184 to -135) (dsDNA)
DNA 1: GATTTAGTCAGCCTTATTTGACTTAAGGGTGCCCTCGTTAGTGACAAATT
DNA 2: AATTTGTCACTAACGAGGGCACCCTTAAGTCAAATAAGGCTGACTAAATC
Question: Does B1 bind?
Answer: binds

— PMC4304707, “Regulation of Oncogene Expression in T-DNA-Transformed Host Plant Cells”
